“And” between values parts separate entries of the source, which are not always exact repeats. Identical values can stand only once. Like-named read-outs stand apart in the source and are kept apart here.

What is called Kd is the free concentration of one partner at which half of the binding sites on the other are occupied at equilibrium, for simple one-to-one binding. Broadly, the koff is a measure of how fast the partners let go of each other. One may read the kon as a measure of how fast the partners come together.

In assay [1] the target is T1, recombinant human FGF23 (R179Q) (human, UniProt Q9GZV9 25-251).
T1 construct: also called rhFGF23(R179Q); hFGF23(R179Q)
T1 sequence (looked up): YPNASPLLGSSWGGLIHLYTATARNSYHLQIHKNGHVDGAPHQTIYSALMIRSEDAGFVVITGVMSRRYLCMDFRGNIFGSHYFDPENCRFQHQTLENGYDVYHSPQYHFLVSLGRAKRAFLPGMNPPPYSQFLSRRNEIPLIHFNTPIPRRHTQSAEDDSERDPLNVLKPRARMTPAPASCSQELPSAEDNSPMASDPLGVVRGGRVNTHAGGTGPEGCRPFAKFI
Nature of the assay: SPR, antibody captured on hIgG chip, rhFGF23(R179Q) analyte. Background: In SPR one partner is held on a chip, and binding of the other changes the refractive index at the surface.

In assay [2] the target is T1, recombinant human FGF23 (R179Q). Nature of the assay: SPR, antibody captured on hIgG chip, human FGF23 analyte.
For assay [3] the target is unchanged. In words: SPR, antibody captured on hIgG chip, rhFGF23(R179Q) analyte. This is another data set of the same source.
The target of assay [4] is T2, cynomolgus monkey (Macaca fascicularis) FGF23 (R179Q) (cynomolgus monkey (Macaca fascicularis), UniProt Q9GZV9 25-251 (human entry), limits assumed).
T2 construct: also called cynoFGF23; cynoFGF23(R179Q)
T2 chain: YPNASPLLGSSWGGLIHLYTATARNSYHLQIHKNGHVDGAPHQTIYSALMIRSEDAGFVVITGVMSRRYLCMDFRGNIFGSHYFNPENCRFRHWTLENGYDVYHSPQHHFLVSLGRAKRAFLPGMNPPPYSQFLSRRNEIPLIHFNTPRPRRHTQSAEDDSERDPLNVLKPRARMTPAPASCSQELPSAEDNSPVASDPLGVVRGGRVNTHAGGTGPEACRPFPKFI
Nature of the assay: SPR, antibody captured on hIgG chip, cynoFGF23(R179Q) analyte, single cycle kinetics. The method, then: Binding kinetics of 13 antibody variants shown in Table 19 were characterized against cynomolgus monkey (Macaca fascicularis) FGF23 (R179Q) (i.e., “cynoFGF23”) (SEQ ID NO: 372). Antibody variants were expressed at small scale (3 ml) and screened by SPR analysis at a single concentration (100 nM). Experimental setup of SPR analysis for CRC: SPR device—8K+; chip preparation—CM5 hIgG chip: channels—1-8; immobilization concentration—1.5 ug/ml; immobilization method—capture; flow rate—5 μl/min; contact time—60 s; running buffer—1×HBS-EP+pH 7.4; temperature—20° C.: flow rate—50 μl/min; association time—120 s; dissociation time—1800 s; antigen—cynoFGF23(R179Q): top concentration—0.1 μM, 9-pt 3-fold Single Cycle Kinetics.

B1: UGX126 (antibody, human IgG1, kappa, V domains shown)
VH: QVQLVQSGAEVKKPGASVKVSCKASGYTFTNHYMHWVRQAPGQGLEWMGIINPISGSTSNAQKFQGRVTMTRDTSTSTVYMELSSLRSEDTAVYYCARDIVDAFDFWGQGTMVTVSS
VL: AIQLTQSPSSLSASVGDRVTITCRASQGISSALVWYQQKPGKAPKLLIYDADSLESGVPSRFSGSGSGTDFTLTISSLQPEDFATYYCQQFNDYFTFGPGTKVDIKR
notes: also called LC:S52D; S52D
For B1, in assay [1], the Kd was determined as 12.4 pM, the “Ratio (variant antibody KD/burosumab KD)” value turned out to be 2, the “SA (surface activity)” value was 86.5% and the koff came out at 0.00013 s⁻¹. Further, the kon in assay [1] was determined as 1.05e+07 M⁻¹ s⁻¹. For the same molecule, in assay [2], the “KD ratio (variant antibody KD/burosumab KD)” value (“KD ratio” below) was found to be 2 and the Kd was 12.4 pM. For the same molecule, in assay [3], the Kd is 12.4 pM, the “Ratio (variant antibody KD/burosumab KD)” value is 2, the “SA (surface activity)” value came to 86.5% and the koff came out at 0.00013 s⁻¹. For the same molecule, the kon in assay [3] amounted to 1.05e+07 M⁻¹ s⁻¹. Also, in assay [4], the “KD ratio” value is 2 and the dissociation constant Kd turned out to be 0.0103 nM.

B2: UGX139 (antibody, human IgG1, kappa, V domains shown)
VH: QVQLVQSGAEVKKPGASVKVSCKASGYTFTNHYMHWVRQAPGQGLEWMGIINPISGSTSNAQKFQGRVTMTRDTSTSTVYMELSSLRSEDTAVYYCARDIVDAFDFWGQGTMVTVSS
VL: AIQLTQSPSSLSASVGDRVTITCRASQGISSALVWYQQKPGKAPKLLIYDASSLESGVPSRFSGSGSGTDFTLTISSLQPEDFATYYCQQFYDYFTFGPGTKVDIKR
notes: also called UGX038; LC:N92Y
For the molecule B2, in assay [2], the “KD ratio” value stood at 1 and the Kd was 16.4 pM. Besides, in assay [3], the Kd stood at 16.4 pM, the “Ratio (variant antibody KD/burosumab KD)” value stood at 1, the “SA (surface activity)” value was 86.2% and the koff was 0.000104 s⁻¹. Moreover, in assay [3], the kon was found to be 6.32e+06 M⁻¹ s⁻¹. Besides, in assay [4], the “KD ratio” value was found to be 1 and the dissociation constant Kd worked out at 0.0162 nM.

B3: UGX175 (antibody, human IgG1, kappa, V domains shown)
VH: QVQLVQSGAEVKKPGASVKVSCKASGYTFTNHYMHWVRQAPGQGLEWMGIINPISGSTSNAQKFQGRVTMTRDTSTSTVYMELSSLRSEDTAVYYCARDIVDSFDFWGQGTMVTVSS
VL: AIQLTQSPSSLSASVGDRVTITCRASQGISSALVWYQQKPGKAPKLLIYDASSLESGVPSRFSGSGSGTDFTLTISSLQPEDFATYYCQQFNDYFTFGPGTKVDIKR
notes: also called HC:A103S; A103S
For the molecule B3, in assay [1], the Kd was found to be 7.72 pM, the “Ratio (variant antibody KD/burosumab KD)” value is 3, the “SA (surface activity)” value worked out at 86.8% and the koff came out at 9.61e-05 s⁻¹. Moreover, the kon in assay [1] stood at 1.24e+07 M⁻¹ s⁻¹. In assay [2], the “KD ratio” value amounted to 3 and the dissociation constant (Kd) came to 7.72 pM. Further, in assay [3], the Kd worked out at 7.72 pM, the “Ratio (variant antibody KD/burosumab KD)” value is 3, the “SA (surface activity)” value is 86.8% and the koff is 9.61e-05 s⁻¹. Further, the kon in assay [3] was 1.24e+07 M⁻¹ s⁻¹. In assay [4], the “KD ratio” value turned out to be 4 and the Kd was determined as 0.00617 nM.

B4: UGX157 (antibody, human IgG1, kappa, V domains shown)
VH: QVQLVQSGAEVKKPGASVKVSCKASGYTFTNHYMHWVRQAPGQGLEWMGIINPYSGSTSNAQKFQGRVTMTRDTSTSTVYMELSSLRSEDTAVYYCARDIVDAFDFWGQGTMVTVSS
VL: AIQLTQSPSSLSASVGDRVTITCRASQGISSALVWYQQKPGKAPKLLIYDASSLESGVPSRFSGSGSGTDFTLTISSLQPEDFATYYCQQFNDYFTFGPGTKVDIKR
notes: also called HC:I54Y; I54Y
For the molecule B4, in assay [1], the equilibrium dissociation constant (Kd) came to 7.58 pM, the “Ratio (variant antibody KD/burosumab KD)” value stood at 3, the “SA (surface activity)” value was 89.1% and the koff came to 0.000113 s⁻¹. The kon in assay [1] stood at 1.49e+07 M⁻¹ s⁻¹. Also, in assay [2], the “KD ratio” value turned out to be 3 and the Kd worked out at 7.58 pM. In addition, in assay [3], the Kd is 7.58 pM, the “Ratio (variant antibody KD/burosumab KD)” value was 3, the “SA (surface activity)” value is 89.1% and the off-rate constant (koff) amounted to 0.000113 s⁻¹. Also, the kon in assay [3] was 1.49e+07 M⁻¹ s⁻¹. In assay [4], the “KD ratio” value stood at 4 and the Kd was determined as 0.00573 nM.

B5: UGX156 (antibody, human IgG1, kappa, V domains shown)
VH: QVQLVQSGAEVKKPGASVKVSCKASGYTFTNHYMHWVRQAPGQGLEWMGIINPFSGSTSNAQKFQGRVTMTRDTSTSTVYMELSSLRSEDTAVYYCARDIVDAFDFWGQGTMVTVSS
VL: AIQLTQSPSSLSASVGDRVTITCRASQGISSALVWYQQKPGKAPKLLIYDASSLESGVPSRFSGSGSGTDFTLTISSLQPEDFATYYCQQFNDYFTFGPGTKVDIKR
notes: also called HC:I54F; I54F
B5: in assay [1], the dissociation constant Kd stood at 10.5 pM, the “Ratio (variant antibody KD/burosumab KD)” value is 2, the “SA (surface activity)” value is 106% and the koff was determined as 6.25e-05 s⁻¹. Moreover, in assay [1], the kon came to 5.94e+06 M⁻¹ s⁻¹. Also, in assay [2], the “KD ratio” value came out at 2 and the Kd was found to be 10.5 pM. Further, in assay [3], the Kd is 9.24 pM and 10.5 pM; the “Ratio (variant antibody KD/burosumab KD)” value stood at 2; the koff is 9.77e-05 s⁻¹ and 6.25e-05 s⁻¹; the kon is 1.06e+07 M⁻¹ s⁻¹ and 5.94e+06 M⁻¹ s⁻¹. In assay [4], the “KD ratio” value was 6 and binding was put at a Kd of 0.00415 nM.

B6: UGX145 (antibody, human IgG1, kappa, V domains shown)
VH: QVQLVQSGAEVKKPGASVKVSCKASGYTFTNHYMHWVRQAPGQGLEWMGIINPISGSTSNAQKFQGRVTMTRDTSTSTVYMELSSLRSEDTAVYYCARDIVDAFDFWGQGTMVTVSS
VL: AIQLTQSPSSLSASVGDRVTITCRASQGISSALVWYQQKPGKAPKLLIYDASSLESGVPSRFSGSGSGTDFTLTISSLQPEDFATYYCQQFNDEFTFGPGTKVDIKR
notes: also called UGX042; LC:Y94E
On to B6, for which, in assay [1], the equilibrium dissociation constant (Kd) is 13.3 pM, the “Ratio (variant antibody KD/burosumab KD)” value is 2, the “SA (surface activity)” value was 87.4% and the koff is 8.52e-05 s⁻¹. The kon in assay [1] came out at 6.42e+06 M⁻¹ s⁻¹. Also, in assay [2], the “KD ratio” value worked out at 2 and the equilibrium dissociation constant (Kd) was 13.3 pM. Further, in assay [3], the Kd is 13.8 pM and 13.3 pM; the koff is 8.52e-05 s⁻¹ and 9.74e-05 s⁻¹; the on-rate (kon) was 6.42e+06 M⁻¹ s⁻¹ and 7.07e+06 M⁻¹ s⁻¹. In addition, in assay [4], the “KD ratio” value amounted to 2 and the Kd amounted to 0.0129 nM.

B7: UGX182 (antibody, human IgG1, kappa, V domains shown)
VH: QVQLVQSGAEVKKPGASVKVSCKASGYTFTNHYMHWVRQAPGQGLEWMGIINPISGSTDNAQKFQGRVTMTRDTSTSTVYMELSSLRSEDTAVYYCARDIIDAFDFWGQGTMVTVSS
VL: AIQLTQSPSSLSASVGDRVTITCRASQGISSALVWYQQKPGKAPKLLIYDASSLESGVPSRFSGSGSGTDFTLTISSLQPEDFATYYCQQFNDYFTFGPGTKVDIKR
notes: also called HC:S59D, HC:V101I; S59D/V101I
In the case of B7, in assay [1], the Kd stood at 9.47 pM, the “Ratio (variant antibody KD/burosumab KD)” value was found to be 2, the “SA (surface activity)” value amounted to 100% and the off-rate constant (koff) was determined as 0.000141 s⁻¹. The on-rate constant (kon) in assay [1] worked out at 1.49e+07 M⁻¹ s⁻¹. Besides, in assay [2], the “KD ratio” value was found to be 2 and the Kd is 9.47 pM. In addition, in assay [3], the Kd was found to be 9.47 pM, the “Ratio (variant antibody KD/burosumab KD)” value was determined as 2, the “SA (surface activity)” value was determined as 100% and the koff was determined as 0.000141 s⁻¹. Besides, the kon in assay [3] was determined as 1.49e+07 M⁻¹ s⁻¹. In assay [4], the “KD ratio” value is 1 and the affinity, expressed as Kd, was 0.0163 nM.

B8: UGX201 (antibody, human IgG1, kappa, V domains shown)
VH: QVQLVQSGAEVKKPGASVKVSCKASGYTFTNHYMHWVRQAPGQGLEWMGIINPISGSTENAQKFQGRVTMTRDTSTSTVYMELSSLRSEDTAVYYCARDIVDAFDFWGQGTMVTVSS
VL: AIQLTQSPSSLSASVGDRVTITCRASQGISSALVWYQQKPGKAPKLLIYDASSLESGVPSRFSGSGSGTDFTLTISSLQPEDFATYYCQQFFDYFTFGPGTKVDIKR
notes: also called HC:S59E, LC:N92F; S59E/N92F
B8: in assay [1], the Kd worked out at 5.17 pM, the “Ratio (variant antibody KD/burosumab KD)” value was 4, the “SA (surface activity)” value was 83.4% and the koff was 5.81e-05 s⁻¹. Further, in assay [1], the kon was 1.12e+07 M⁻¹ s⁻¹. In assay [2], the “KD ratio” value amounted to 4 and the Kd came to 5.17 pM. For the same molecule, in assay [3], the Kd is 4.52 pM and 6.32 pM and 5.17 pM; the koff is 3.65e-05 s⁻¹ and 6.31e-05 s⁻¹ and 5.81e-05 s⁻¹; the kon is 8.08e+06 M⁻¹ s⁻¹ and 9.99e+06 M⁻¹ s⁻¹ and 1.12e+07 M⁻¹ s⁻¹. Besides, in assay [4], the “KD ratio” value was determined as 2 and binding was put at a Kd of 0.0101 nM.

The values above are taken from US20260250371A1 (ULTRAGENYX PHARMACEUTICAL, published 2026).
